Target: CD123 peptide epitope (24 aa, extracellular domain, disulfide between the two Cys) (UniProt P26951)
Assay: flow cytometry, peptide-coated magnetic beads
Conditions: PBS (binding buffer), 37 °C, 30 min; BSA-bead signal subtracted for Kd; pH and salt not given

Sequence of UniProt P26951 (P26951 whole entry, the tested form may be a part): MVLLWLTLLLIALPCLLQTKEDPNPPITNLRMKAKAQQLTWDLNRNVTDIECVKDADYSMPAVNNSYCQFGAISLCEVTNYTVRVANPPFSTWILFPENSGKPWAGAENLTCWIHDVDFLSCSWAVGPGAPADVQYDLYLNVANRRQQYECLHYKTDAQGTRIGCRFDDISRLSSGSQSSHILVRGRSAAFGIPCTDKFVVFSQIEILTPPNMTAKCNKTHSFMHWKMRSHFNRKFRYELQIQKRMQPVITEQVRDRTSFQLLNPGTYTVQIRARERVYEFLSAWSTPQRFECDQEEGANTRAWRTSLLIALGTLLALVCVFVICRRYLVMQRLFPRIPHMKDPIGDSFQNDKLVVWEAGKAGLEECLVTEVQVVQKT

Sequence: TGCGTGTGTAGTGTGTCTGGGCTACATCGATGAGCTGCCTAGGGTCCCTCTTAGGGATTTGGGCGG [ZW25]
- Kd: 29.4 nM

Sequence: TGCGTGTGTACTGTGTCTGGTCCCGTAGCTACTAGCGAACTCCCTGCCTCTTAGGGATTTGGGCGG [CY30]
- Kd: 15.4 nM

From paper PMC8241133
